Assay results published in US5811533.
Like-named read-outs stand apart in the source and are kept apart here.

How the values were obtained:
[1] = tested on: T1, VEGF165 (recombinant human vascular endothelial growth factor, 165 aa form) (Homo sapiens), P15692-4; experiment: filter
T1 sequence: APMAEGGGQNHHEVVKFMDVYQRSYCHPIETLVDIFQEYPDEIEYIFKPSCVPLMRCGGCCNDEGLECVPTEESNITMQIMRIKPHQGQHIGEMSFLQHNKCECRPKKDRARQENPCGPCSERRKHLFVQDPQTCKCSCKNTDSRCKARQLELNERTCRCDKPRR

PDGF = experiment: filter; conditions: specificity
[2] = 2'-NH2 pyrimidines, random pool

Row | Sequence | Kd [1] | other results
1 | ATCCGCCTGATTAGCGATACTGGTGGACTAGAGGNCAGCAAACGATCCTTGGTTCGCGTCCACTTGAGCAAAATCACCTGCAGGGG [ssDNA 32] | 2 nM | 
2 | ATCCGCCTGATTAGCGATACTGGTGTGAACCAGACCTACNGGAACGTTATCGCTTGTGACTTGAGCAAAATCACCTGCAGGGG [ssDNA 44] | 0.4 nM | 
3 | ATCCGCCTGATTAGCGATACTNNNNNNNNNNNNNNNNNNNNNNNNNNNNNNNNNNNNNNNNACTTGAGCAAAATCACCTGCAGGGG [starting random ssDNA pool] |  | Kd ([1]; random pool): 200 nM
4 | CTACCTACGATCTGACTAGCACAAGGGGTCCTGNNGAATGGGGGAATACGCTAGCCGAAGCTTACTCTCATGTAGTTCCT [ssDNA b55] | 15 nM | 
5 | CTACCTACGATCTGACTAGCACGCAAGAGAGGTCNCCGAATGGCAGTCTCAGCCGCTAACAGCTTACTCTCATGTAGTTCCT [ssDNA b91] |  | Kd ([1]; clone listed in families 1 and 2): 3.9 nM
6 | CTACCTACGATCTGACTAGCATCCTTCCGAATGGGGGAAATGGCGNCCCAGCTTACTCTCATGTAGTTCCT [ssDNA b89] | 2 nM | 
7 | CTACCTACGATCTGACTAGCCCACTGCAGAGAGTCAACCTTACGANGCCAAGGTTGCGGTGCTTAGCTTACTCTCATGTAGTTCCT [ssDNA b97] | > 1 nM | 
8 | CTACCTACGATCTGACTAGCCCACTGCATAGAGAGTCGCAAGACACGGTGCTTTATTCNCCGCTTAGCTTACTCTCATGTAGTTCCT [ssDNA b62] | 2.9 nM | 
9 | CTACCTACGATCTGACTAGCCCACTGCATAGAGATACTGGATTCGACNNNCCAAAGTTTCGGTGCTTAGCTTACTCTCATGTAGTTCCT [ssDNA b96] | 1.5 nM | 
10 | CTACCTACGATCTGACTAGCTGCNNGCGGGCGGTTCTCCGGATGGGACCATAAGGCTTTAGCTTAGCTTACTCTCATGTAGTTCCT [ssDNA b54] | 2.5 nM | 
11 | GGAAGCUUGAUGGGUGACACACGUCAUGCCGAGCU [ligand 44t] |  | Kd (PDGF): 600 nM
12 | GGCCGGUAGUCGCAUGGCCCAUCGCGCCCGG [ligand 100t] |  | Kd (PDGF): 600 nM
13 | GGGAGACAAGAAUAACGCUCAANNNNNNNNNNNNNNNNNNNNNNNNNNNNNNUUCGACAGGAGGCUCACAACAGGC [Random RNA A (30N8)] |  | Kd [1, 2]: 83 nM
14 | GGGAGCUCAGAAUAAACGCUCAANNNNNNNNNNNNNNNNNNNNNNNNNNNNNNUUCGACAUGAGGCCCGGAUCCGGC [random RNA pool (30N)] |  | Kd ([1]; random pool): 200 nM
15 | GGGAGGACGAUGCGGNNNNNNNNNNNNNNNNNNNNNNNNNNNNNNNNNNNNNNNNNNNNNNNNNNCAGACGACUCGCCCGA [Random RNA B (50N7)] |  | Kd [1, 2]: 240 nM
16 | TGGACTAGAGGNCAGCAAACGATCCTTGGTTCGCGTCC [32t] | 17 nM | 
